“And” between values parts separate entries of the source, which are not always exact repeats. Identical values can stand only once.
Experiments:
Abz-DRRL-EDDnp = target: T1, Abz-DRRL-EDDnp
T1 chain: DRRL

Abz-GFSDYK(Dnp)-OH = target: T2, Abz-GFSDYK(Dnp)-OH
T2 chain: GFSDYK

[1] = substrate: Nc1ccccc1C(=O)NCC(=O)N[C@@H](Cc1ccccc1)C(=O)N[C@@H](CO)C(=O)N[C@@H](CC(=O)O)C(=O)N[C@@H](Cc1ccc(O)cc1)C(=O)N[C@@H](CCCCNc1ccc([N+](=O)[O-])cc1[N+](=O)[O-])C(=O)O; experiment: Hydrolysis by membrane-bound PHEX from transfected LLC-PK1 cells; format: biochemical, human; conditions: other: membrane-bound PHEX, 0.01 M Bis-Tris pH 5.5, 150 mM NaCl, 37° C.
Description: (§1) FIG. 3 graphically illustrates hydrolysis of Abz-GFSDYK(Dnp)-OH (SEQ ID NO:3) by secPHEX and membrane-bound PHEX. Abz-GFSDYK(Dnp)-OH (SEQ ID NO:3) at a concentration of 10 μM was incubated at 37° C., in 0.01 M Bis-Tris buffer, pH 5.5 with 150 mM NaCl, containing 2,1 μg total proteins from membranes extracted from LLC-PK1 transfected with vector alone (notes as “A” on the figure), or 2,1 μg total proteins from membranes extracted from LLC-PK1 transfected with the membrane-bound form of human PHEX (noted as “□” on the figure); or 2,1 μg total proteins from membranes extracted from LLC-PK1 transfected with vector alone to which 500 ng purified secPHEX were added (noted as “o” on the figure). Fluorescence was monitored every 4 min for a period of 28 min. Amounts of secPHEX or membrane-bound PHEX (mPHEX) in the enzymatic reactions were evaluated by immunoblotting (Inset). Mock: cells transfected with vector alone;
(§2) The human recombinant secPHEX was obtained following the procedure previously described (17, WO 00/50580). Purified secPHEX concentration was determined using the Bradford method (DC protein assay kit; Bio-Rad, Mississauga, ON, Canada). […] Insoluble material was pelleted by centrifugation at 10,000 g for 15 min and protein concentrations of the supernatant determined using the Bradford method described above. PHEX amounts were evaluated by immunoblotting as described previously (17). […]

Abz-A110-WLDSGVQ-EDDnp = target: T3, Abz-A110-WLDSGVQ-EDDnp
T3 chain: AWLDSGVQ

Abz-D125-HLSDTSTQ-EDDnp = target: T4, Abz-D125-HLSDTSTQ-EDDnp
T4 chain: DHLSDTSTQ

Abz-G337-SNDIMGQ-EDDnp = target: T5, Abz-G337-SNDIMGQ-EDDnp
T5 chain: GSNDIMGQ

Abz-G386-SSDAAEQ-EDDnp = target: T6, Abz-G386-SSDAAEQ-EDDnp
T6 chain: GSSDAAEQ

Abz-GFSDYK(Dnp)-NH2 = target: T7, Abz-GFSDYK(Dnp)-NH2
T7 chain: GFSDYK

Abz-GFSDYQ-EDDnp = target: T8, Abz-GFSDYQ-EDDnp
T8 chain: GFSDYQ

Abz-GFSEYK(Dnp)-NH2 = target: T9, Abz-GFSEYK(Dnp)-NH2
T9 chain: GFSEYK

Abz-GFSEYK(Dnp)-OH = target: T10, Abz-GFSEYK(Dnp)-OH
T10 chain: GFSEYK

Abz-GP197-QRDSQAQ-EDDnp = target: T11, Abz-GP197-QRDSQAQ-EDDnp
T11 chain: GPQRDSQAQ

Abz-I232-PSDFEGQ-EDDnp = target: T12, Abz-I232-PSDFEGQ-EDDnp
T12 chain: IPSDFEGQ

Abz-L134-ELDSRQ-EDDnp = target: T13, Abz-L134-ELDSRQ-EDDnp
T13 chain: LELDSRQ

Abz-L94-MMDFRGQ-EDDnp = target: T14, Abz-L94-MMDFRGQ-EDDnp
T14 chain: LMMDFRGQ

Abz-N122-GYDVYHQ-EDDnp = target: T15, Abz-N122-GYDVYHQ-EDDnp
T15 chain: NGYDVYHQ

Abz-N449-EMDSFNQ-EDDnp = target: T16, Abz-N449-EMDSFNQ-EDDnp
T16 chain: NEMDSFNQ

[2] = target: T17, Abz-R175-RHTQSAEDDSERQ-EDDnp
T17 chain: RRHTQSAEDDSERQ

[3] = target: T18, Abz-R175-RHTRSAEDDSERQ-EDDnp
T18 chain: RRHTRSAEDDSERQ

Abz-R441-GLDNEIQ-EDDnp = target: T19, Abz-R441-GLDNEIQ-EDDnp
T19 chain: RGLDNEIQ

Abz-R506-RDDSSEQ-EDDnp = target: T20, Abz-R506-RDDSSEQ-EDDnp
T20 chain: RRDDSSEQ

Abz-R76-SEDAGFQ-EDDnp = target: T21, Abz-R76-SEDAGFQ-EDDnp
T21 chain: RSEDAGFQ

Abz-S212-AEDNSPQ-EDDnp = target: T22, Abz-S212-AEDNSPQ-EDDnp
T22 chain: SAEDNSPQ

Abz-S513-SDSGSQ-EDDnp = target: T23, Abz-S513-SDSGSQ-EDDnp
T23 chain: SSDSGSQ

Abz-T294-HLDTKKQ-EDDnp = target: T24, Abz-T294-HLDTKKQ-EDDnp
T24 chain: THLDTKKQ

[4] = substrate: Nc1ccccc1C(=O)NCC(=O)N[C@@H](Cc1ccccc1)C(=O)N[C@@H](CO)C(=O)N[C@@H](CC(=O)O)C(=O)N[C@@H](Cc1ccc(O)cc1)C(=O)N[C@@H](CCCCNc1ccc([N+](=O)[O-])cc1[N+](=O)[O-])C(=O)O; experiment: Hydrolysis by secPHEX added to membranes of vector-transfected LLC-PK1 cells; format: biochemical, human; conditions: other: secPHEX added to membranes from cells transfected with vector alone, 0.01 M Bis-Tris pH 5.5, 150 mM NaCl, 37° C.
Description: as §1, §2

B1: membrane-bound form of human PHEX (Homo sapiens) (protein)
chain: MEAETGSSVETGKKANRGTRIALVVFVGGTLVLGTILFLVSQGLLSLQAKQEYCLKPECIEAAAAILSKVNLSVDPCDNFFRFACDGWISNNPIPEDMPSYGVYPWLRHNVDLKLKELLEKSISRRRDTEAIQKAKILYSSCMNEKAIEKADAKPLLHILRHSPFRWPVLESNIGPEGVWSERKFSLLQTLATFRGQYSNSVFIRLYVSPDDKASNEHILKLDQATLSLAVREDYLDNSTEAKSYRDALYKFMVDTAVLLGANSSRAEHDMKSVLRLEIKIAEIMIPHENRTSEAMYNKMNISELSAMIPQFDWLGYIKKVIDTRLYPHLKDISPSENVVVRVPQYFKDLFRILGSERKKTIANYLVWRMVYSRIPNLSRRFQYRWLEFSRVIQGTTTLLPQWDKCVNFIESALPYVVGKMFVDVYFQEDKKEMMEELVEGVRWAFIDMLEKENEWMDAGTKRKAKEKARAVLAKVGYPEFIMNDTHVNEDLKAIKFSEADYFGNVLQTRKYLAQSDFFWLRKAVPKTEWFTNPTTVNAFYSASTNQIRFPAGELQKPFFWGTEYPRSLSYGAIGVIVGHEFTHGFDNNGRKYDKNGNLDPWWSTESEEKFKEKTKCMINQYSNYYWKKAGLNVKGKRTLGENIADNGGLREAFRAYRKWINDRRQGLEEPLLPGITFTNNQLFFLSYAHVRCNSYRPEAAREQVQIGAHSPPQFRVNGAISNFEEFQKAFNCPPNSTMNRGMDSCRLW
notes: expressed in transfected cells; host or cells: LLC-PK1 (porcine kidney cells)
substrate hydrolysis (fluorescence) (Abz-DRRL-EDDnp): Neither enzyme hydrolyzed this substrate
Km (Abz-GFSDYK(Dnp)-OH): 5×10^-6 M and 10×10^-6 M, for secPHEX and membrane-bound PHEX, respectively
substrate hydrolysis (fluorescence) (Abz-GFSDYK(Dnp)-OH): degradation of the substrate was observed
Km [1]: 10 µM

B2: human recombinant secPHEX (pure soluble form of PHEX) (protein)
chain: SLQAKQEYCLKPECIEAAAAILSKVNLSVDPCDNFFRFACDGWISNNPIPEDMPSYGVYPWLRHNVDLKLKELLEKSISRRRDTEAIQKAKILYSSCMNEKAIEKADAKPLLHILRHSPFRWPVLESNIGPEGVWSERKFSLLQTLATFRGQYSNSVFIRLYVSPDDKASNEHILKLDQATLSLAVREDYLDNSTEAKSYRDALYKFMVDTAVLLGANSSRAEHDMKSVLRLEIKIAEIMIPHENRTSEAMYNKMNISELSAMIPQFDWLGYIKKVIDTRLYPHLKDISPSENVVVRVPQYFKDLFRILGSERKKTIANYLVWRMVYSRIPNLSRRFQYRWLEFSRVIQGTTTLLPQWDKCVNFIESALPYVVGKMFVDVYFQEDKKEMMEELVEGVRWAFIDMLEKENEWMDAGTKRKAKEKARAVLAKVGYPEFIMNDTHVNEDLKAIKFSEADYFGNVLQTRKYLAQSDFFWLRKAVPKTEWFTNPTTVNAFYSASTNQIRFPAGELQKPFFWGTEYPRSLSYGAIGVIVGHEFTHGFDNNGRKYDKNGNLDPWWSTESEEKFKEKTKCMINQYSNYYWKKAGLNVKGKRTLGENIADNGGLREAFRAYRKWINDRRQGLEEPLLPGITFTNNQLFFLSYAHVRCNSYRPEAAREQVQIGAHSPPQFRVNGAISNFEEFQKAFNCPPNSTMNRGMDSCRLW
Km (Abz-A110-WLDSGVQ-EDDnp): 1.5 µM
kcat (Abz-A110-WLDSGVQ-EDDnp): 0.04 s⁻¹
kcat/Km (Abz-A110-WLDSGVQ-EDDnp): 26.7 mM⁻¹ s⁻¹
Km (Abz-D125-HLSDTSTQ-EDDnp): 1.3 µM
kcat (Abz-D125-HLSDTSTQ-EDDnp): 0.1 s⁻¹
kcat/Km (Abz-D125-HLSDTSTQ-EDDnp): 77 mM⁻¹ s⁻¹
substrate hydrolysis (fluorescence) (Abz-DRRL-EDDnp): Neither enzyme hydrolyzed this substrate
Km (Abz-G337-SNDIMGQ-EDDnp): 13 µM
kcat (Abz-G337-SNDIMGQ-EDDnp): 0.01 s⁻¹
kcat/Km (Abz-G337-SNDIMGQ-EDDnp): 0.8 mM⁻¹ s⁻¹
Km (Abz-G386-SSDAAEQ-EDDnp): 2.4 µM
kcat (Abz-G386-SSDAAEQ-EDDnp): 0.3 s⁻¹
kcat/Km (Abz-G386-SSDAAEQ-EDDnp): 125 mM⁻¹ s⁻¹
Km (Abz-GFSDYK(Dnp)-NH2): 53.2 µM
fold decrease in catalytic efficiency against Abz-GFSDYK(Dnp)-OH (Abz-GFSDYK(Dnp)-NH2): a 6-fold decrease in catalytic efficiency due to its low affinity for the enzyme
kcat (Abz-GFSDYK(Dnp)-NH2): 1.3 s⁻¹
kcat/Km (Abz-GFSDYK(Dnp)-NH2): 24.4 mM⁻¹ s⁻¹
Km (Abz-GFSDYK(Dnp)-OH): 3 µM and 5×10^-6 M and 10×10^-6 M, for secPHEX and membrane-bound PHEX, respectively
kcat (Abz-GFSDYK(Dnp)-OH): 0.5 s⁻¹
kcat/Km (Abz-GFSDYK(Dnp)-OH): 167 mM⁻¹ s⁻¹
substrate hydrolysis (fluorescence) (Abz-GFSDYK(Dnp)-OH): degradation of the substrate was observed
Km (Abz-GFSDYQ-EDDnp): 13.3 µM
kcat (Abz-GFSDYQ-EDDnp): 0.6 s⁻¹
kcat/Km (Abz-GFSDYQ-EDDnp): 45.1 mM⁻¹ s⁻¹
hydrolysis by PHEX (Abz-GFSEYK(Dnp)-NH2): Resistant
kcat/Km (pseudo first-order conditions) (Abz-GFSEYK(Dnp)-OH): 9 mM⁻¹ s⁻¹
Km (Abz-GP197-QRDSQAQ-EDDnp): 47 µM
kcat (Abz-GP197-QRDSQAQ-EDDnp): 0.2 s⁻¹
kcat/Km (Abz-GP197-QRDSQAQ-EDDnp): 4.3 mM⁻¹ s⁻¹
kcat/Km (pseudo-first order conditions) (Abz-I232-PSDFEGQ-EDDnp): 80 mM⁻¹ s⁻¹
Km (Abz-L134-ELDSRQ-EDDnp): 0.9 µM
kcat (Abz-L134-ELDSRQ-EDDnp): 0.05 s⁻¹
kcat/Km (Abz-L134-ELDSRQ-EDDnp): 55.5 mM⁻¹ s⁻¹
Km (Abz-L94-MMDFRGQ-EDDnp): 17 µM
kcat (Abz-L94-MMDFRGQ-EDDnp): 0.8 s⁻¹
kcat/Km (Abz-L94-MMDFRGQ-EDDnp): 45 mM⁻¹ s⁻¹
Km (Abz-N122-GYDVYHQ-EDDnp): 9 µM
kcat (Abz-N122-GYDVYHQ-EDDnp): 0.01 s⁻¹
kcat/Km (Abz-N122-GYDVYHQ-EDDnp): 1.1 mM⁻¹ s⁻¹
Km (Abz-N449-EMDSFNQ-EDDnp): 38 µM
kcat (Abz-N449-EMDSFNQ-EDDnp): 0.3 s⁻¹
kcat/Km (Abz-N449-EMDSFNQ-EDDnp): 7.9 mM⁻¹ s⁻¹
Km [2]: 1.7 µM
kcat [2]: 0.15 s⁻¹
kcat/Km [2]: 88.2 mM⁻¹ s⁻¹
Km [3]: 3 µM
kcat [3]: 0.2 s⁻¹
kcat/Km [3]: 66.7 mM⁻¹ s⁻¹
Km (Abz-R441-GLDNEIQ-EDDnp): 7 µM
kcat (Abz-R441-GLDNEIQ-EDDnp): 0.03 s⁻¹
kcat/Km (Abz-R441-GLDNEIQ-EDDnp): 4.3 mM⁻¹ s⁻¹
Km (Abz-R506-RDDSSEQ-EDDnp): 5.3 µM
kcat (Abz-R506-RDDSSEQ-EDDnp): 0.5 s⁻¹
kcat/Km (Abz-R506-RDDSSEQ-EDDnp): 94.3 mM⁻¹ s⁻¹
Km (Abz-R76-SEDAGFQ-EDDnp): 4.1 µM
kcat (Abz-R76-SEDAGFQ-EDDnp): 0.06 s⁻¹
kcat/Km (Abz-R76-SEDAGFQ-EDDnp): 14.6 mM⁻¹ s⁻¹
Km (Abz-S212-AEDNSPQ-EDDnp): 22 µM
kcat (Abz-S212-AEDNSPQ-EDDnp): 0.3 s⁻¹
kcat/Km (Abz-S212-AEDNSPQ-EDDnp): 13.6 mM⁻¹ s⁻¹
Km (Abz-S513-SDSGSQ-EDDnp): 31.6 µM
kcat (Abz-S513-SDSGSQ-EDDnp): 0.2 s⁻¹
kcat/Km (Abz-S513-SDSGSQ-EDDnp): 7.1 mM⁻¹ s⁻¹
Km (Abz-T294-HLDTKKQ-EDDnp): 15 µM
kcat (Abz-T294-HLDTKKQ-EDDnp): 0.02 s⁻¹
kcat/Km (Abz-T294-HLDTKKQ-EDDnp): 1.3 mM⁻¹ s⁻¹

B3: secPHEX (Homo sapiens) (protein)
chain: B2 chain
notes: pure soluble form of PHEX (secPHEX); made in house
Km [4]: 5 µM

Source: patent publication US20060292657A1, “Phex substrates and methods using same” (priority 2003, published 2006)
